According to the DeepSol protein solubility set:

Test: soluble on expression in E. coli; label from the status in PepcDB or PDB records

Row | Sequence | soluble on expression in E. coli
1 | GSDHVDLREHVIDVPPQEVICKDNVVVTVDAVVYYQVIDPVKAVYNVSDFLMAIVKLAQTNLRAIIGEMELDETLSGRDIINARLREELDKITDRWGVKITRVEIQRIDPPKD | soluble
2 | MGVATMVTDKYQKCIDACNRCSQACYECFKACLNEPDVNARRTCISILFECAQMCQMSSALMSMDAQFAIDHCKLCSVICDKCAQECSMFQDPHCQKCANECRTCSNECRMMSGMLEHHHHHH | soluble
3 | MTGHRPACPPIPADVYTRLERRIGRCHLNQRLGIEHDFEARIFGQGRTFFHIENWNRLHTLLRRLLKLSLLYRPGQRAARRIEIRRNEFTLPHLPEAFEGYTLLHISDLHLDMAGDLPDALIRAIGQAGHYDACVLTGDFRARTFGPYRGAIDGLAQVRTHIDKPVFAILGNHDTIRMTPEIEDLGIGVLLNEAREIRQDGASIFLAGVDDPHYYRADNIEKAADPIPQGAVSILLSHSPELYRHAAYADFDIMLCGHTHGGQICLPGGIALTLNARCPRAFGRGYWRYHRMQGYTSAGSGVSILDIRLNCPPEITLHRLSRHRLSKGGCECGGGKGLEHHHHHH | soluble
4 | MGSDKIHHHHHHMMCFSCRVTSDAKVVFLDVIPTPQDIISDFSYICLLLTIKFEYMENISRRTAIKTFLAGGVALATTGIEAAAAAKKKTDVKEPLKGNVRHSVSKWCFGDYKLDEFCEICKHIGIESVELLDPVDWPIVQKHGLTVAMAQGAGLGIDRGFNDPALHDELVASYEKVIPMVADAGLTNLICFSGRRNGVTDLQGWENCEKGLKRLIPLAEKHKVVLTMELLNSVGHKDYLCDHTVWGAELCRRIGSPNFKLLYDIYHMQIMEGNIIENIRKYHPYFSHVHTGGSPGRAEIDETQELYYPAIIKALMETGYKGFVGQEFVPAQEDKIASLEKCIRICDV | not soluble
5 | MVSNSSITFKEFVDYWFEAYASTAVKPSTQKRYRQLLKPALRAIGNKPLNKVKPLDIQNIYIALAGTQSNCTILKLHRLLHEIFKHAQMWEYISDNPVKKVVPPTPEKKVFDLEHHHHHH | not soluble
6 | MSLDGGNSLFQLRKELYSTDNKLSSIDDDLSDRNTTEDLIMLPSSANSNFSSPYTSNNKYGNTKILTETEKYSVTKLSTDLSFLPGSNGNNNTIDTHHFEGLVDTALQKALVNDLDHIYIWNYNSIQKDTPICKISLHDDYSVLSSPPICLFTSSISSTNNDTANYNNNASGNINSGKFNNGICIINKKNSQFLYFEDISTINNLYTKLSKSKAHVLDLKLKDNENITSTINCEPSGIIIATSLGRVLFITIKDSTGKPKLELKQQLIKPQNSFFFRNLDSSKEIISLKKGPIVGKGERLLYITTRGGSLQIWQLSINSKSFKRLEINIYEHVLDSLQDLYPFAHGTLAFLDSHPIYSDTSSAHLTLASISNGNEIYYLMITVILDEKTNSFQIFSIYKLNTYFTKSTVDLNHKPQLFIPNALDSIVSPTLSVYVLFNNAVVMTQISSKLDSSFPLRRKWEDIIRFNKDVEIIGSGYSTDSIYVICKDMGVLKIASHSNNNQELELVSFVKSHIDQAVYFSTITSNEGHHHHHH | soluble
7 | MGSDKIHHHHHHMINIGLTGWGDHYSLYEDLERQTDKLKTYAGHFPVVELDATYYAIQPERNILKWIKETPDTFEFVVKIHQALTLHADYKTFADTRQELFDQFKNMLEPLHTQKKLAMVLVQFPPWFDCNAQNIKYILYVRQQLQAFPMCVEFRHQSWFSDAFKEQTLAFLTEHQIIHAVVDEPQVKDGSVPLVNRITNEIAFVRYHGRNHYGWTKKDMSDQEWRDVRYLYDYNEQELIDLAQKAQILAQKAKKVYVIFNNNSGGHAANNAKTYQRLLNIEYEGLAPQQLKLF | not soluble
8 | MSLLLSATTSIHDLVTSHPYLIEVLADYAPAFAKLRNPLLRNTLGRVATLQQAADLAGLELTGLMAHLARAIMEHTKEAVTLVPRGAETPAHAVADGDSGCGGCTPRPAEGNTADRATRLATLRALLERLHQGTPLADLKEAFASAVGGISAAEVASLEKELVAGGVAETEIKRLCSLHVDIFREALAPQHVPDMPPGHPVHTYRAENAEATRIADEIISQIDRMRSVPGDTESPLDELAWSFSRRHVADLLADLAHVERHYTRKEMQLFPMLEENGIEAPPKVMWEVHDDIRSLLRKARETVEGPSPVAAATVARDAALAVKDMVDKEETVLFPMALESLTEAQWGRVRHGEDEIGYAWVTPEGEWTPQAADTPESLTMEGAATGTPDRVTLGTGTLTVETLDRMLRTLPLDLSLVDAEDRVAYYTDSTHRIFPRSAGVIGRNVRNCHPPKSVHMVEEILARFKTGERDEAAFWIELGGRFLHIRYFAVRSDEGRYLGCLEVAQDVTDIRALSGQRRLLDWNEGHHHHHH | not soluble
9 | MAMNLRKNQAPLYIKVHEIDNTAIIVNDGGLPKGTVFSCGLVLEEDVPQGHKVALTDLNQGDEIVRYGEVIGFADETIKRGSWIREALVRMPAP | not soluble
10 | MSLFSISNLSFIGFLKRIVFSSDSLPGKWEHRKFRFMYILRCSINPVVSIRYYYELRSLPCIEDILAIHPTLPARIHRPYLHKGGRAWTRGQYILEHYRFVQNLPEKYSKFLFPQKSVSLVQFIGKDGENFDIQCSPSGFDREGELMLSLFYNKTVIARLTYSVILTQNGHIAFIGGLQGAPKNTGPDVIRCATRACYGLFPKRIIFEAFCALMKACNVSECLAVSEHSHVFRQLKYWYQKRKTFVAVYSDFWDSVPGKTCGDWYKLPTQVIRKPLTDIPIKKRSDYRKQYALLDYIHETTIRSLDAYPVHSKHQNSNEGHHHHHH | not soluble
11 | MTTCFCTGARSGPTVAISADLHQALRGIVAQRMATDPAHDLAHLDRVWVNVQAIASPGADRDVLLAASYLHDLVNLPKNAPDRHTASRRSADEAAPILRDLGFDEAQIAATGHAIAAHSFSAGISPESEEARILRDADRLDALGAIGIARNFSVSGSLGRALYDPADPFCERRTPDDALYSLDHWRVKLLSLPQGMLTDKGRALAEARIALMLRFLDDFAAEIGTPLPEGWTRGLEHHHHHH | soluble
12 | GIPKCPEDWGASSRTSLCFKLYAKGKHEKKTWFESRDFCRALGGDLASINNKEEQQTIWRLITASGSYHKLFWLGLTYGSPSEGFTWSDGSPVSYENWAYGEPNNYQNVEYCGELKGDPTMSWNDINCEHLNNWICQIQKGQTPKPD | soluble
13 | MGSDKIHHHHHHMNSGDIPATATFVNGTVNEKAATPRIPHQRPEGCPVSITRDSRAVALLWSFMNNDSSSRIAARLREWIATAAPGARLPSTRSLVAGYQASPVTVQKALQSLTAQGLIESRPGVGTFVRAVRTARPSDYGWQTAALRSPLAPLPSASTTMRDVANNAIAFHSGYPDRELLPERLVRAALTRAARGDAALSRPPAAGLPELQSWFARELGASTPAGTTPPNPSDVVVLPGSQSGLSSIFSALAGRGQPLLMESPTYWGAILAAAQAGVRVVPVPSGPDGPDPAELARAFDETGARLFYAQPNYANPTGAQWAPGRGEEVLEVVRGKGAFLVEDDWAHDFGITTSPVPVASRDDSGHVVYLRSLTKSVSPAIRIAAVIARGPARERILADRAAESMYVSGLLQAAALDVVTQPGWQTHLRSLRHQLQARRDLLVTSIREHAPQAHIEQVPKGGLNLWARLPDATDLDRLTRDCESRGVIIAAGREWFPAEPAGAFIRLNYSGSNPGAFPEGARIIGESIERNSS | not soluble
14 | MSLKPVKPPRINGRVPVLSAQEAVNYIPDEATLCVLGAGGGILEATTLITALADKYKQTQTPRNLSIISPTGLGDRADRGISPLAQEGLVKWALCGHWGQSPRISELAEQNKIIAYNYPQGVLTQTLRAAAAHQPGIISDIGIGTFVDPRQQGGKLNEVTKEDLIKLVEFDNKEYLYYKAIAPDIAFIRATTCDSEGYATFEDEVMYLDALVIAQAVHNNGGIVMMQVQKMVKKATLHPKSVRIPGYLVDIVVVDPDQTQLYGGAPVNRFISGDFTLDDSTKLSLPLNQRKLVARRALFEMRKGAVGNVGVGIADGIGLVAREEGCADDFILTVETGPIGGITSQGIAFGANVNTRAILDMTSQFDFYHGGGLDVCYLSFAEVDQHGNVGVHKFNGKIMGTGGFIDISATSKKIIFCGTLTAGSLKTEITDGKLNIVQEGRVKKFIRELPEITFSGKIALERGLDVRYITERAVFTLKEDGLHLIEIAPGVDLQKDILDKMDFTPVISPELKLMDERLFIDAAMGFVLPEAAHEGGSHHHHHH | soluble
15 | MEFYPIHILLSKLEEEIAFQQKMATTYLVSPPKYSPEVIGTVSETLRRISADLKLVSLILGELEEVQERDIKEEALILSSESLSLISLLLPAIEKYAPFFLESMKVERKPILEKLEDVMAEIENAIEKLELSSSREIIRSLEELAQSLEISLKMGERILERES | not soluble
16 | MGSSHHHHHHSSGRENLYFQGMTTAKRDTYTPETLLSVAVQVFIERGYDGTSMEHLSKAAGISKSSIYHHVTGKEELLRRAVSRALDELFGILDEEHARVGTAAERLEYVVRRMVEVLMAELPYVTLLLRVRGNTGTERWALERRREFDHRVAALLKDAAAEGDVRADVEVRLATRLVFGMINSIVEWYRPEGPDGRSDASGASGVSGAGEREVVDAVARLVFGGLRKAS | soluble
17 | MSECSASTSQLSTFCVNEIPWKLVPQTCDEFSEYEFIDEKYRRLSDVESFVWKWSPCGRYGIDLPGGRDVINQQLRDRMAVFDLHTNKWTLYTMDRGAFEIPRVCFLYWARNDIIGTITLVKDYEAGPDDEIPLKFKQSFFYVSHETQTLVYSGSCKYRTNKTIVASYWYHIFENRRGEPFIDHNNYLWLVFSNGVDSLILLPFIPTSTCFKAKCVSFDMNDIVSQFTGIRVFLDPFVSSHYVPWVYRNDVNFFIRIDSHSFIEEQNRDYGLDPQIDNPETKPHRGVFQLRVNLKDVIEKGEKDAIHAVNPETIETRFNRGDIELWRKISDELRQEHQSIAQHGKMVVVQRWSHFTVDMGLSKKMRTRVADLDARDYCCSHKPRNSSFCCIDLDSERIKAVDALILGTDVVLPHPSGSVFLFRYKENYGMSYCELPFFQPLSLKLKCIQVLKESVEIDPSYYRIKCCLKMQEELEKETAENLCTINIQQ | not soluble
18 | MQIDDALLQRLEKLSMLEIKDEHKESVKGHLAEVLGFVENIFALETSALKTDIELCTPLREDEPKSQPNTAKEILSQNKHSQDHYFVVPKIIE | not soluble
19 | MDPGPWNECVPVRMPDDPQIHMVSNTRQAVELLTKRWPVSHGQAYQAAIDICMAVLERESPAYVARVAFVAAAKEAQVNIVS | not soluble
20 | MGSDKIHHHHHHQPIPDMAKAQTAALNSITAADLSAYLHIVASDSMEGRATGEAGQKRTALYLADKFKEFGLSPAVPTAVDKSYFQKFSLVEKTWKEVWLKVGNKQKEFLKDFYAYGDVQLPEATAMKIVCAGYGIEARNYSDYTNLDVKDKGVIIFTGEPFKDSVSLVTKTKQSSTWANDWRAKADLAYKKGAKAVFIIVGNTDTDFETRLAALKDHLNAPSMAFTHKKKASAFFVPASLAAEMLKSTPDALASYKKNRTGTNTPYPFKSAKVIAKAGVTERTVETENVLAVIEGSRYPEEIVVLTAHYDHLGIENGQICYGADDDGSGTVALLEIAQAFSIAKSLGHGPARTILFMPVTGEERGLMGSEYYTDKPVFPLKNTVADLNIDMIGRVDAAHPNVIDENYVYIIGDNRLSSELHTLSENANTGWQGPKIVLDYTYNSFDDPNRFYYRSDHYNFAKNNIPVIFYFSGIHADYHKPTDTVDKIRFDKMAKITQLVFLTAWQLANMDHRLVVDRTE | not soluble
21 | MGSDKIHHHHHHMSAEDYKNLPVTVEKPIPVVYDLGNLAAFDSNVLDKNDLDSSNARREEKIKSLTRDNVQLLINQLLSLPMKTTTESVGGTGGQSSVMTLLQLPDPTTDLPREKPLPKAKAMTKWEKFAAKKGIKPKERAGKMIYDEASGEWVPKWGYKGANKKLDDQWLVEVDDKVKGTDNELIDPRTLNRAERKRLVKKNEKQQRRNMKNAL | not soluble
